Test results taken from PMC9200065.

Target: T1, MBP-GLD-1(135-336) WT (C. elegans, UniProt Q17339 135-336)
T1 sequence: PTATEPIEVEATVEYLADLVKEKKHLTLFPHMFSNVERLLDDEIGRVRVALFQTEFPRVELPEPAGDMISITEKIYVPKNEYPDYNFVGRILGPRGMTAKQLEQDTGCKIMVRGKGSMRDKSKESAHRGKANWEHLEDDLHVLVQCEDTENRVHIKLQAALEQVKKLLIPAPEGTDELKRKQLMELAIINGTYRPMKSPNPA
Test: EMSA

UUUUUCUUAUUCUAGACUAAUAUUGUAAGCU (ssRNA) [glp-1 3'UTR fragment]: binds.
